Assays:
NINJA = biological target: T1, NINJA (Arabidopsis thaliana, UniProt Q9SV55); assay: BiFC interaction with NINJA in Nicotiana benthamiana leaves; type: cell-based; details: in plants (FIG. 8)
T1 construct: expressed in transfected cells; host or cells: Nicotiana benthamiana leaves (Agrobacterium infiltration)
Text: The binary BiFC-Gateway YFP vectors pDEST-VYNE(R)^GW (Venus aa 1-173) and pDEST-VYCE(R)^GW (Venus aa 156-239) with N-terminal fusions, were used to construct the following vectors; pDESTnYFP-BZR1, pDESTnYFP-NINJA, pDESTnYFP-PPD1, pDESTcYFP-BZR1, pDESTcYFP-PPD1, pDESTcYFP-PPD1Δppd, pDESTcYFP-PPD1Δtify and pDESTcYFP-PPD1Δjas*. For transient in planta expression of proteins interacting with PPD1 or BZR, NINJA and TPL were Gateway® sub-cloned into pRSh1, to construct pRSh1-NINJA and pRSh1-TPL. […] When expressed these constructs produced proteins listed in sequences 60, 62, 70 71 72 73 74 75 76 77 78 79: including TOPLESS (TPL), NINJA, Bimolecular Fluorescence (BiFC) nYFP, BiFC cYFP, BiFC nYFP-NINJA, BiFC nYFP-BZR1, BiFC cYFP-PPD1, BiFC cYFP-NINJA, BiFC cYFP-BZR1, BiFC cYFP-PPD1-ppd, BiFC cYFP-PPD1-tify, BiFC cYFP-PPD1-jas*.
Transient BiFC experiments were performed using combinations of pDESTnYFP and pDESTcYFP plasmids, with or without plasmids for the expression of NINJA (pRSh1-NINJA) or TPL (pRSh1-TPL) and Agrobacterium-infiltration of Nicotiana benthamiana leaves. […] Two hours prior to sampling for microscopic fluorescence observations leaves were infiltrated with a 1 μg/ml DAPI solution to stain nuclei. YFP fluorescence and DAPI staining was detected using an Olympus Fluoview FV10i confocal laser scanning microscope. […]

DELLA (RGA1) = biological target: T2, DELLA (RGA1) (Arabidopsis thaliana, UniProt Q9SLH3); assay: Yeast two-hybrid (Y2H) analysis between PPD and DELLA (RGA1); type: binding; details: PPD1-DBD as bait, 15 mM 3AT
T2 construct: expressed in transfected cells; host or cells: yeast strain MaV203
T2 sequence (Q9SLH3 with tags, fused parts or gaps): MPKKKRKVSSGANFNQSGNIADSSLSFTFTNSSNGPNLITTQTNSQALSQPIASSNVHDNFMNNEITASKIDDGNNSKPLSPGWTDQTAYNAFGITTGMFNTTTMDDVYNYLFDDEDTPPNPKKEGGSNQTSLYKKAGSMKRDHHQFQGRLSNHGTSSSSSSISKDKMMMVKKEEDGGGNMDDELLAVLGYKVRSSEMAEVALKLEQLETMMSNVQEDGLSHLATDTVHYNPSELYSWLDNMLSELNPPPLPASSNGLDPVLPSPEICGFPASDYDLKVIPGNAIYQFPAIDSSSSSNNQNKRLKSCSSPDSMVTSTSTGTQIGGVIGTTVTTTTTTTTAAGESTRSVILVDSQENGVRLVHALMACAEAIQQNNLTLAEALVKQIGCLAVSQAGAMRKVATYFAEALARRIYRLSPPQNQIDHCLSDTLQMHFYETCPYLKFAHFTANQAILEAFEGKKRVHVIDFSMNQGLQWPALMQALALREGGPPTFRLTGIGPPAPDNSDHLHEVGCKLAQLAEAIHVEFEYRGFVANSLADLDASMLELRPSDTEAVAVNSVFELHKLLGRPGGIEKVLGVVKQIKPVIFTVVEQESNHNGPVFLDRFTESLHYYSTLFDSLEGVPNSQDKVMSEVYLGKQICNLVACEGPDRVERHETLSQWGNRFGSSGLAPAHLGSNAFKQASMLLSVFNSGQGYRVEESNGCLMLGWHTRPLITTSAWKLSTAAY
Text: The ProQuest two-hybrid system (Invitrogen) was used to analyse interactions between PPD1, and RGA1. Full length coding sequences of PPD1, together with truncation or deletion derivatives of PPD1 (PPD1Δppd, PPD1Δtify, and PPD1Δjas*) (FIG. 5), were Gateway sub-cloned into pDEST32 (N-terminal GAL4DBD) or pDEST22 (N-terminal GAL4AD). When translated these generated the following peptide sequences: 55, 65, 66, 67, 68, 7169, which are PPD1-DBD, RGA1, RGA1-AD, PPD1-ppd-DBD, PPD1-tify-DBD, PP1-jas*-DBD respectively.
Combinations of bait and prey constructs were used to co-transform yeast strain MaV203 (Invitrogen), with selection on synthetic dropout (SD) SD/-Leu/-Trp agar plates. Transformed strains were tested for interactions using 10 μl droplets of 1 in 10 and 1 in 100 dilutions on SD/-Leu/-Trp/-His plates with different concentrations of 3-aminotriazol (3-AT) (Sigma). The PPD1-RGA1 interaction was tested with PPD1-DBD used as bait. Transformed yeast was spotted as a ten-fold dilution on control medium (−2) or selective medium (−3) with 15 mM 3AT. Controls were empty vectors, DBD, GAL4 DNA binding domain, AD, GAL4 activation domain (FIG. 5).

BZR1 = biological target: T3, BZR1 (Arabidopsis thaliana, UniProt Q8S307); assay: BiFC interaction with BZR1 in Nicotiana benthamiana leaves; type: cell-based
T3 construct: expressed in transfected cells; host or cells: Nicotiana benthamiana leaves (Agrobacterium infiltration)
T3 sequence (Q8S307 1-336): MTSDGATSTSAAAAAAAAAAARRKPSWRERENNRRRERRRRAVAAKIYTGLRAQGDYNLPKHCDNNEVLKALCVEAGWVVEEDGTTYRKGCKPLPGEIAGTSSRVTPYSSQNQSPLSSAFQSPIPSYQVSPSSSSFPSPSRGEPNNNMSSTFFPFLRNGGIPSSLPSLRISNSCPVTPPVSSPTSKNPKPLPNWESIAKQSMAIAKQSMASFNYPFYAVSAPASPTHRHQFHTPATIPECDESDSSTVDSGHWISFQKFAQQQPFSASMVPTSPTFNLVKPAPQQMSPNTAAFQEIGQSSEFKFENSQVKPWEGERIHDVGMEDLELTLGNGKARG
Text: The binary BiFC-Gateway YFP vectors pDEST-VYNE(R)^GW (Venus aa 1-173) and pDEST-VYCE(R)^GW (Venus aa 156-239) with N-terminal fusions, were used to construct the following vectors; pDESTnYFP-BZR1, pDESTnYFP-NINJA, pDESTnYFP-PPD1, pDESTcYFP-BZR1, pDESTcYFP-PPD1, pDESTcYFP-PPD1Δppd, pDESTcYFP-PPD1Δtify and pDESTcYFP-PPD1Δjas*. For transient in planta expression of proteins interacting with PPD1 or BZR, NINJA and TPL were Gateway® sub-cloned into pRSh1, to construct pRSh1-NINJA and pRSh1-TPL. Plasmids for co-immunoprecipitation: A synthesised DNA construct encoding PPD1 with a 3×c-myc C-terminal fusion was sub-cloned into pRSh1 to produce pRSh1-PPD1-3×c-myc, while the NINJA cDNA sequence was sub-cloned into pB7FWG2,0 (Karimi et al 2002, Trends Plant Sci. 7, 193-195) to construct pB7FWG2-NINJA-GFP. When expressed these constructs produced proteins listed in sequences 60, 62, 70 71 72 73 74 75 76 77 78 79: including TOPLESS (TPL), NINJA, Bimolecular Fluorescence (BiFC) nYFP, BiFC cYFP, BiFC nYFP-NINJA, BiFC nYFP-BZR1, BiFC cYFP-PPD1, BiFC cYFP-NINJA, BiFC cYFP-BZR1, BiFC cYFP-PPD1-ppd, BiFC cYFP-PPD1-tify, BiFC cYFP-PPD1-jas*.
Transient BiFC experiments were performed using combinations of pDESTnYFP and pDESTcYFP plasmids, with or without plasmids for the expression of NINJA (pRSh1-NINJA) or TPL (pRSh1-TPL) and Agrobacterium-infiltration of Nicotiana benthamiana leaves. For infiltration Agrobacterium tumefaciens GV3101 strains containing the binary vectors were re-suspended from plates and prepared for transformation as described for the LUC assay. All YFP and expression strains were mixed in ratios of 1:1 (vol/vol) with the addition of strain P19 at 1/10th volume. Five leaf discs were sampled from each infiltrated leaf after 40 h. Two hours prior to sampling for microscopic fluorescence observations leaves were infiltrated with a 1 μg/ml DAPI solution to stain nuclei. YFP fluorescence and DAPI staining was detected using an Olympus Fluoview FV10i confocal laser scanning microscope. Each experiment was repeated twice.

T1 sequence (Q9SV55 with tags, fused parts or gaps): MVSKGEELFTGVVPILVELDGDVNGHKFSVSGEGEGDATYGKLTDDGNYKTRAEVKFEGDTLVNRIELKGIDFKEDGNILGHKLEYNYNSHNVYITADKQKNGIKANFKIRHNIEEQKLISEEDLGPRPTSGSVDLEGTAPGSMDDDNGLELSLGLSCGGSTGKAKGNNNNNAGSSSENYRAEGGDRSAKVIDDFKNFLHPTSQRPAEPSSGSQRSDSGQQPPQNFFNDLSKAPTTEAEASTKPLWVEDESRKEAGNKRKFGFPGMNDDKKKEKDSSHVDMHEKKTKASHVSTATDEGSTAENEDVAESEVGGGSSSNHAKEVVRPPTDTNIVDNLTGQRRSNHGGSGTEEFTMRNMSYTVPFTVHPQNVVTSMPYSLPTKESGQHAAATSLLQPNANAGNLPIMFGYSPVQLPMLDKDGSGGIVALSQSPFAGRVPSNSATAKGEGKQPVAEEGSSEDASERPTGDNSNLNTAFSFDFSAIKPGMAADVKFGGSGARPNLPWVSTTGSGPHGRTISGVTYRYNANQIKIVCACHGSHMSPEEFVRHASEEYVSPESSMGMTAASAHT

B1: PPD1: PEAPOD 1 protein of Arabidopsis thaliana, SEQ ID NO: 1 (protein, listed as Arabidopsis thaliana)
chain: MDVGVSPAKSILAKPLKLLTEEDISQLTREDCRKFLKDKGMRRPSWNKSQAIQQVLSLKALYEPGDDSGAGIFRKILVSQPVNPPRVTTTLIEPSNELEACGRVSYPEDNGACHRMDSPRSAEFSGGSGHFVSEKDGHKTTISPRSPAETSELVGQMTIFYSGKVNVYDGIPPEKARSIMHFAANPIDLPENGIFASSRMISKLISKEKMMELPQKGLEKANSSRDSGMEGQANRKVSLQRYREKRKDRKFSKAKKCPGVASSSLEMFLNCQPRMKAAYSQNLGCTGSPLHSQSPESQTKSPNLSVDLNSEGI
For B1, the “interaction with NINJA” value (NINJA) was “interacted with NINJA in plants”, the “interaction with DELLA (RGA1)” value (DELLA (RGA1)) was “can directly bind to DELLA” and the “interaction with BZR1” value (BZR1; fully expanded leaves, co-expression of NINJA) was “restored”. The “interaction with BZR1” value (BZR1; pavement cells of immature Nicotiana benthamiana leaves) was “appears to interact with BZR1 in the nucleus”.

Source: patent US10487337B2, “Methods for monocot plant improvement” (Agresearch Limited, priority 2014, dated 2019)
